{"source": "paper PMC11626772", "biological_target": "N-terminally truncated type IV pilin from P. aeruginosa strain P1 (ΔP1) (Pseudomonas aeruginosa strain P1)", "assay": "SEC-MALS; 23 mg ml^-1 ΔP1 with trigger solution (10 mM Tris, 300 mM NaCl, 1 mM EDTA, 1 mM DTT, 1 M MPD pH 7.4) at 10:1 (v:v) protein:hydrophobe, 96 h at room temperature with nutation; then SEC-MALS as for the untreated sample; monomer to dimer", "data": [{"substance": "N-terminally truncated type IV pilin from P. aeruginosa strain P1 (ΔP1) (domain or fragment)", "values": [{"measurement": "mass fraction of the dimer", "value": 9.1, "unit": "%"}, {"measurement": "stoichiometry N", "value": 2}]}]}
